{"source": "patent US20230079439A1", "about": "“Compositions and Methods for Enhancing Beta Cell Maturation, Health and Function” (THE REGENTS OF THE UNIVERSITY OF CALIFORNIA, priority 2016, published 2023)", "target": "transcellular partners", "experiment": "cell-based or functional assay"}
{"substance": "Soluble neuroligin-2 extracellular domain (receptor)", "values": [{"measurement": "half-maximal inhibition of insulin secretion by rat islets (20 mM glucose)", "value": 9, "unit": "nM"}]}
